Reference: US20210079109A1 (Regeneron, published 2021)
Substitutions are numbered along the chain they refer to.

T1: human CD63 (human, UniProt P08962 2-238)
T1 construct: stably transfected in NIH3T3/hCD63; The cell line is named under assay; also called hCD63
T1 sequence: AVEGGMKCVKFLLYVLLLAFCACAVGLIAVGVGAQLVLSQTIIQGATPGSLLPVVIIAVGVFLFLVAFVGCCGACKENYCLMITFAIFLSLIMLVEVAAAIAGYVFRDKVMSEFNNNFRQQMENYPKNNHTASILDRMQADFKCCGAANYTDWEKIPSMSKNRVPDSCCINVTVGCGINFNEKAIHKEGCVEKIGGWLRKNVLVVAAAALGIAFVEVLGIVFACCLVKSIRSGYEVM

B1: H4H11996P2 (antibody, V domains shown)
VH: QVQLVESGGGLVKPGGSLRLSCAASGFIFTDYFMNWIRQAPGKGLEWVSYISNSGNILYYADSVKGRFTISRDNAKASLYLQMSSLKAEDTAVYYCVRDPRMFYGMDVWGQGTTVTVSS
VL: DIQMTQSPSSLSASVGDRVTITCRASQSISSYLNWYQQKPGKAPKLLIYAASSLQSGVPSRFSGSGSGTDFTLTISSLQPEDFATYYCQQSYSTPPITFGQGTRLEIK
B2: H4H11992P2 (antibody, V domains shown)
VH: B1 VH with G15R, T30D, I57T, L58K, K76Y, A77N, S84N, K87R, M102S, F103Y
VL: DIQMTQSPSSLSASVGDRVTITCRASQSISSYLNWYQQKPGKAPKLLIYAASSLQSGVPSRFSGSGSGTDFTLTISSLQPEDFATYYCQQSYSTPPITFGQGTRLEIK
B3: H4H11990P2 (antibody, V domains shown)
VH: QVQLVESGGGLVKPGGSLRLSCATSGFTFTDYFMNWIRQAPGKGLEWVSYISNSGSIRYYADSVRGRFSISRDNAKNSLYLQMSSLRADDTAVYYCVRDPRQIYGMDVWGQGTTVTVSS
VL: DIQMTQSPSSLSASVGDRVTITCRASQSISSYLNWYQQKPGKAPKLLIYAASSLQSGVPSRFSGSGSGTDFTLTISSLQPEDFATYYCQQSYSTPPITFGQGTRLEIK
B4: H2M13022N (antibody, V domains shown)
VH: QVQLVESGGGLVQPGGSLRLSCAASGFIFGDYYINWIRQAPGKGLQWVSYTSSSGSTTYYEDSVKGRFTMSRDNAKNLVYLQMNSLRAEDTAAYYCVRDLRYNDGLDVWGQGTTVIVSS
VL: DILLTQSPSSLSAFVGDRVTITCRASQNIRTYLNWYQQKPGRAPKLLVYAASTLQSGVPSRFSGSGSGTDFTLTISSLQPEDFASYFCQQSYDNPPITFGQGTRLAIK
notes: also called H2bM13022N
B5: H3M12361N (antibody, V domains shown)
VH: EVQLVESGGGLVQPGRSLRLSCTASGFTFGDHAMHWVRQAPGKGLEGVSSINWNSGIIGYAESVKGRFTISRDNAKNSLYLQMNNLRAEDTGLYYCARDIGVATLGIDYWGQGTLVTVSS
VL: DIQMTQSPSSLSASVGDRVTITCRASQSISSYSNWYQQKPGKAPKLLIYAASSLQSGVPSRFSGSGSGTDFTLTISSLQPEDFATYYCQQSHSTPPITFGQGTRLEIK
B6: H4H11997P2 (antibody, V domains shown)
VH: QVQLVESGGGLVKPGGSLRLSCAASGFTFSDYYMNWIRQAPGKGLEWITYINNGGYTKYYADSVKGRFIISRDNTKNSVHLQMNSLRAEDTAVYYCVRDPRMYYGMDVWGQGTTVTVSS
VL: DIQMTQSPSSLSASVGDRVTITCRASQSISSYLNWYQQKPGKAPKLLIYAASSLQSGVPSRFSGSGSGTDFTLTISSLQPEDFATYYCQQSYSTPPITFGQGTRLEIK
B7: H4H11993P2 (antibody, V domains shown)
VH: QVQLVESGGGLVKPGGSLRLSCAASGFTFSDYYMNWIRQAPGKGLEWVSYINGGGYTMYYADSVKGRFTISRDNAKNSLYLQMNSLRAEDTAVYYCARDRRTTVSIDYWGQGTLVTVSS
VL: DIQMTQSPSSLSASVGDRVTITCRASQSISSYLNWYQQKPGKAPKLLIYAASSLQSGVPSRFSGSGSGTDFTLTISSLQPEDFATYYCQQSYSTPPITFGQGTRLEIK

target: T1, human CD63; assay: ECL, LNCAP cells
Procedure: (§1) LNCAP cells were determined to have a lower human CD63 copy number than U87MG cells. Non-transfected NIH3T3 cells, which have no detectable expression of human CD63 by fluorescence activated cell sorting (FACS), were included as a negative control.
(§2) Briefly, cell lines were rinsed once in PBS buffer without Ca²⁺/Mg²⁺ and incubated for 10 minutes at 37° C. with Enzyme Free Cell Dissociation Solution (Millipore, Cat #S-004-C) to detach the cells. Cells were then washed once with PBS with Ca²⁺/Mg²⁺ and counted with a Cellometer™ Auto T4 cell counter (Nexcelom Bioscience, LLC). Approximately 2.0×10⁴ NIH3T3/hCD63, LNCAP, U87MG or NIH3T3 cells were seeded separately onto 96-well carbon electrode plates […]) and were then incubated for one hour at 37° C. Nonspecific binding sites were blocked with 2% BSA (w/v) in PBS with Ca²⁺/Mg²⁺ for one hour at room temperature (RT). Solutions containing anti-CD63 antibodies or isotype control antibodies at a range of concentrations (1.7 pM to 100 nM) in 0.5% BSA (w/v) in PBS with Ca²⁺/Mg²⁺, as well as control buffer alone, were then added in duplicate to the plate-bound NIH3T3/hCD63, LNCAP, U87MG or NIH3T3 cells and incubated for one hour at RT. Plates were subsequently washed to remove unbound antibodies using an AquaMax2000 plate washer with a cell washing head (MDS Analytical Technologies). […] Plates were washed and then incubated with Read Buffer (MSD, Cat #R92TD-2) according to the manufacturer's instructions. Luminescent signals were measured using a SECTOR Imager (MSD).

Row | Binder | EC50 [nM] | binding ratio at 3.7 nM vs NIH3T3 [fold]
1 | B1 | 4.4 | 7
2 | B2 | 3.6 | 4
3 | B3 | 5.1 | 6
4 | B4 | 0.32 | 8
5 | B5 | 1.1 | 19
6 | B6 | 1.9 | 11
7 | B7 | 6.7 | 8

target: T1, human CD63; assay: ECL, U87MG cells
Procedure: as §1, §2

Row | Binder | EC50 [nM] | binding ratio at 3.7 nM vs NIH3T3 [fold]
8 | B1 | 8.1 | 57
9 | B2 | 5.5 | 33
10 | B3 | 4.8 | 66
11 | B4 | 0.85 | 71
12 | B5 | 1.3 | 111
13 | B6 | 1.7 | 99
14 | B7 | 17 | 62

target: T1, human CD63; assay: ECL, NIH3T3/hCD63 cells
Procedure: as §1, §2

Row | Binder | EC50 [nM] | binding ratio at 3.7 nM vs NIH3T3 [fold]
15 | B1 | 0.98 | 188
16 | B2 | 1.5 | 87
17 | B3 | 0.93 | 168
18 | B4 | 0.45 | 95
19 | B5 | 0.81 | 243
20 | B6 | 0.94 | 266
21 | B7 | 2.5 | 227

target: T2, recombinant human CD63 extracellular loop 2 expressed with a C-terminal Myc-Myc-hexahistidine (human); assay: SPR Biacore, mAb captured, 25C
T2 construct: also called hCD63 EC loop 2-MMH; human CD63 EC loop 2-MMH
Procedure: (§3) Equilibrium dissociation constants (KD) for different CD63 (EC2) loop reagents binding to purified anti-CD63 monoclonal antibodies were determined using a real-time surface plasmon resonance based Biacore T200 biosensor or Biacore 2000 biosensor. All binding studies were performed in 10 mM HEPES, 150 mM NaCl, 3 mM EDTA, and 0.05% v/v Surfactant Tween-20, pH 7.4 (HBS-ET) running buffer at 25° C. and 37° C. The Biacore CMS sensor chip surface was first derivatized by amine coupling with either a rabbit anti-mouse Fc specific polyclonal antibody (GE Healthcare, Cat #BR100838) or an anti-human Fab kit (GE Healthcare, Cat #28958325) to capture anti-CD63 monoclonal antibodies. […] The association rate (Kₐ) and dissociation rate (kd) were determined by fitting the real-time binding sensorgrams to a 1:1 binding model with mass transport limitation using Scrubber 2.0c curve-fitting software. Binding dissociation equilibrium constant (KD) and dissociative half-life (t½) were calculated from the kinetic rates as: […]
(§4) Binding kinetics parameters for human CD63 EC loop 2 protein binding to different anti-CD63 monoclonal antibodies of the invention at 25° C. and 37° C. are shown in Tables 6 through 9.

T2 sequence (chain, as listed by the source limits assumed): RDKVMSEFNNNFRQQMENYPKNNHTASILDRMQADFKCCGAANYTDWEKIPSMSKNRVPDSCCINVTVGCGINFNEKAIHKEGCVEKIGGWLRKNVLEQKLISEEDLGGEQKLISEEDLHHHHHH

Row | Binder | 100 nM Ag Bound (RU) | Kd [nM] | koff [s⁻¹] | kon [M⁻¹ s⁻¹] | t1/2 [min]
22 | B1 | 61 | 84.9 | 0.014 | 165000 | 0.8
23 | B2 | 53 | 213 | 0.0267 | 125000 | 0.4
24 | B3 | 94 | 30.6 | 0.00591 | 193000 | 2
25 | B4 | 48 | 13 | 0.00132 | 102000 | 9
26 | B5 | 43 | 3.12 | 0.000805 | 258000 | 14
27 | B6 | 106 | 19.9 | 0.00371 | 186000 | 3.1
28 | B7 | 10 |  |  |  | 

target: T3, recombinant human CD63 extracellular loop 2 expressed with a C-terminal human Fc tag (human); assay: SPR Biacore, mAb captured, 25C
T3 construct: also called hCD63 EC loop 2-hFc; human CD63 EC loop 2-Fc
Procedure: as §3, §4

T3 sequence (chain, as listed by the source limits assumed): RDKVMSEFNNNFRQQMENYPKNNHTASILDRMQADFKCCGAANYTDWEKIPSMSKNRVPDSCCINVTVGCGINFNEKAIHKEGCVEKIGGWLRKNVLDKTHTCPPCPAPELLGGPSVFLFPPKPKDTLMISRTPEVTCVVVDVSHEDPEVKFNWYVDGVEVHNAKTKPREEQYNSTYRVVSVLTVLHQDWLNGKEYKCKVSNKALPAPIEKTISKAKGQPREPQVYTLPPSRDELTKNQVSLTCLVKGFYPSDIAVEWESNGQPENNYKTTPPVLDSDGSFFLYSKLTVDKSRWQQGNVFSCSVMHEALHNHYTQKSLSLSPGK

Row | Binder | 100 nM Ag Bound (RU) | Kd [nM] | koff [s⁻¹] | kon [M⁻¹ s⁻¹] | t1/2 [min]
29 | B1 | 257 | 0.292 | 0.000135 | 461000 | 86
30 | B2 | 304 | 0.401 | 0.000257 | 641000 | 45
31 | B3 | 275 | 0.209 | 8.99e-05 | 430000 | 128
32 | B4 | 117 | 0.61 | 0.00028 | 460000 | 41
33 | B5 | 83 | 0.299 | 0.000132 | 441000 | 87
34 | B6 | 291 | 0.149 | 6.2e-05 | 417000 | 186
35 | B7 | 194 | 2 | 0.000728 | 364000 | 16

target: T2, recombinant human CD63 extracellular …; assay: SPR Biacore, mAb captured, 37C
Procedure: as §3, §4

Row | Binder | 100 nM Ag Bound (RU) | Kd [nM] | koff [s⁻¹] | kon [M⁻¹ s⁻¹] | t1/2 [min]
36 | B1 | 46 | 361 | 0.0389 | 108000 | 0.3
37 | B2 | 30 | 12300 | 0.0814 | 6600 | 0.1
38 | B3 | 81 | 124 | 0.0198 | 160000 | 0.6
39 | B4 | 31 | 21.5 | 0.00671 | 311000 | 2
40 | B5 | 39 | 5.85 | 0.00289 | 495000 | 4
41 | B6 | 74 | 145 | 0.0192 | 132000 | 0.6
42 | B7 | 3 |  |  |  | 

target: T3, recombinant human CD63 extracellular …; assay: SPR Biacore, mAb captured, 37C
Procedure: as §3, §4

Row | Binder | 100 nM Ag Bound (RU) | Kd [nM] | koff [s⁻¹] | kon [M⁻¹ s⁻¹] | t1/2 [min]
43 | B1 | 294 | 0.264 | 0.000142 | 538000 | 81
44 | B2 | 358 | 1.05 | 0.000682 | 647000 | 17
45 | B3 | 338 | 0.104 | 4.96e-05 | 482000 | 233
46 | B4 | 107 | 1.01 | 0.000562 | 557000 | 21
47 | B5 | 97 | 0.568 | 0.00037 | 651000 | 31
48 | B6 | 342 | 0.045 | 1.91e-05 | 425000 | 603
49 | B7 | 156 | 7.92 | 0.00457 | 577000 | 3
